Data reported in the DeepSol protein solubility set.

Assay: soluble on expression in E. coli; label from the status in PepcDB or PDB records

| Sequence | soluble on expression in E. coli |
| --- | --- |
| MKKNTSKTTMRINKQDALCTPHSHDPRDLQNMLDGGEYAPFVSPPMLESNFIQVNRRGESIYLHNRANWVTVGICFSSSTHKIPNVMLLAHLTPGAQKDTETLFKSLLTSPPAEKLVLTRFLPLQFVTLSVHDAENMSLKVKLVSGRAYYLQLCTSAYKQDTLFSQWVALISLLNQEKAKVSKVSEVSSLSGITNSTDITGSMDVTDVTTFTAILTPYMYAGTGPEHVRDSIDFPEFTDITDITDVTDLPENEVPEVPDVRIVTEVIEVREATEVTDSSDITNCSGVTVVFENNDLIRAKQEEKEKLKNILKPGCLQDTKSKRYFQTTLTPVESEANTSKEMKDKTSEEKMPDFQSTALKAEESRSLRTESNTSVLSPHIKSPSNFLKLVPHLSAPFSRE | soluble |
| MKKRILAVAVTSMLLSASVFAQETVVPSRVGDLKFESDFPTQETMKNMLNEMDFQRATQAYLWGIPASSIMEWLNVSRNDFKFEEGQMGFFNTLKQKQGIITANFTTPYVIGTWNLEKTGPLIINLPEAKMAGMMLDVHQRVLSDLSLLGPDKGKGGKYLIVPPGEKYKDLNPKGYYVIRPKTNVVYGGIRILEPDVDRVVKQVVPNITTQPYADGKLGRKIPVAQVPEIDWTHIPKDGLEYWKTIHQIIQENPVEERDRFVMAQLKFLGIEKGKPFNPTEEQKKILLEASKVGRAMAQSNDYTKRFTQPYWKGTNWKDAISVSLDQRSENYDELDERAAWFYEAITVSRGMKSTIPGFGQRYLVTYQDSDGNWLSGEHTYKLHVPANVPASNFWSTTVYDENNRLMIINDAGSPDISSRKNLKVNSDGSIDVYYGPKPVKGYENNWVQTNPGEGWFTYFRFYGPTEKMFDKSWTMGDIELVKLEHHHHHH | soluble |
| MKKRYLVLTALLALSLAACSQEKTKNEDGETKTEQTAKADGTVGSKSQGAAQKKAEVVNKGDYYSIQGKYDEIIVANKHYPLSKDYNPGENPTAKAELVKLIKAMQEAGFPISDHYSGFRSYETQTKLYQDYVNQDGKAAADRYSARPGYSEHQTGLAFDVIGTDGDLVTEEKAAQWLLDHAADYGFVVRYLKGKEKETGYMAEEWHLRYVGKEAKEIAASGLSLEEYYGFEGGDYVD | not soluble |
| MKKTHINVIGAGLAGSEAAYQIAKRGIPVKLYEMRGVKQTPQHKTDKFAELVCSNSLRGAAITNAVGLLKEEMRRLDSVIIKAAEVTQVPAGGALAVDREGFSDFVTREVSNHPLVEVIREEITDLPEDEITIIATGPLTSDKLAEKIHEFNGADGFYFYDAAAPIIDANSINFDKVYKKSRYDKGEADYINCPMTKEEFQAFQEALISAEEAPLNSFEDLKVFEGCMPIEEMAKRGYKTMLFGPMKPVGLEYPEDYKGPRDGDFKTPYAVVQLRQDNASASLYNIVGFQTHLKWGEQKRVFQMIPGLENAEFVRYGVMHRNSYMDSPNLLKQTFQSRKQENLFFAGQMTGVEGYVESAASGLVAGINAVKLFNDEEVVIFPKTTAIGSLPYYITHTDSKHFQPMNVTFGIVEELEGPRIRDKKERYTKVAERALNSLTDIISKDNLLEHHHHHH | soluble |
| MKKVEVLKRLENAGVIAVLRADSKEEALKISHAVVEGGMIGLELTFTVPQADEVIRSLVETYHDEKDIVIGAGTVLDAVTARLAIMAGAEFIVSPSFNRETAEICNLYQVPYLPGCMTITEMQTALKSGVDIVKLFPGSTYGPSIISAFQAPLPYLNIMPTGGVSLDNMASWFEAGVTAVGVGGNLLAHAKTGEFGKVTALAKQYMAKFREIKEN | not soluble |
| MKKWVCTVCGYIYDEDAGDPDNGISPGTKFEELPDDWVCPLCGVGKDQFEKLED | soluble |
| MKKYLLSFLLSMILTLTSHAESNPDPTTYPDVELSPPPRISLRSLLTAQPIKNDHYDSHNYLSTHWELIDYKGKEYEKLRDGGTLVQFKVVGAAKCFAFPGEGTTDCKDIDHTVFNLIPTNTGAFLIKDALLGFCMTSHDFDDLRLEPCGISVSGRTFSLAYQWGILPPFGPSKILRPPVGRNQGS | soluble |
| MKLAKLIPKRFFIRSKDRSTVSKSPTAFSFGSASSSSGQDCKNSGGDGGGGSVTPTSILPEVPSPYSYVEILQAFKLIDRDNDGAVSRHDLESLLSRLGPDPLTEEEINVMLKEVDCDGDGTIRLEELASRVVSLDPARDSTELKETFEFFDADRDGLISADELLRVFSTIGDERCTLDDCKRMIADVDEDGDGFVCFTEFSRMMDLQR | soluble |
| MKLHEAKLLLNDPTFSIDSITYQELEMDSDYVDVHEDISYSKDNVDLHSHTFFEILFCQSGSLQYMVGNTRYQLVKNSIVCIPPGVSHCPLYLEQLSEPYRRTVMWISNKIYHQYMNLLNNDPIEKSSCLLPQNVFLLSGNILYQVEELYEKMLNIPPDFSGAELYKIGLSAQIVTLFHQFLNSHEINPLKPEKTILLDEIIHFIENHLSEELSAKRIAAHFLVSESSINQLFSKQISLSLYRYITQRRLIEAKNLISSQTPLKKLPELCGFSDYSVFYKAFTKQYGISPKEYKNRIFKMQQ | soluble |
| MKLIFQMGKQPVLEKTILLFILSIVESLKLKVVSLDEAHRYIFNLEVLELLMDRNIDDQVLELIHFGMGLEDIYHVLPEELEHTIEELKWLCIQVLSEYSMHEESEQLIEDIR | not soluble |
| MKLKNTLLASALLSAMAFSVNAATELTPEQAAAVKPFDRVVVTGRFNAIGEAVKAVSRRADKEGAASFYVVDTSDFGNSGNWRVVADLYKADAEKAEETSNRVINGVVELPKDQAVLIEPFDTVTVQGFYRSQPEVNDAITKAAKAKGAYSFYIVRQIDANQGGNQRITAFIYKKDAKKRIVQSPDVIPADSEAGRAALAAGGEAAKKVEIPGVATTASPSSEVGRFFETQSSKGGRYTVTLPDGTKVEELNKATAAMMVPFDSIKFSGNYGNMTEVSYQVAKRAAKKGAKYYHITRQWQERGNNLTVSADLYKLEHHHHHH | not soluble |
| MKLKTNIRHLHGIIRVPGDKSISHRSIIFGSLAEGETKVYDILRGEDVLSTMQVFRDLGVEIEDKDGVITVQGVGMAGLKAPQNALNMGNSGTSIRLISGVLAGADFEVEMFGDDSLSKRPMDRVTLPLKKMGVSISGQTERDLPPLRLKGTKNLRPIHYELPIASAQVKSALMFAALQAKGESVIIEKEYTRNHTEDMLQQFGGHLSVDGKKITVQGPQKLTGQKVVVPGDISSAAFWLVAGLIAPNSRLVLQNVGINETRTGIIDVIRAMGGKLEITEIDPVAKSATLIVESSDLKGTEICGALIPRLIDELPIIALLATQAQGVTVIKDAEELKVKETDRIQVVADALNSMGADITPTADGMIIKGKSALHGARVNTFGDHRIGMMTAIAALLVADGEVELDRAEAINTSYPSFFDDLESLIHG | soluble |
| MKLLLLLCISCIPLAYSHDGEPFDYLMFTTIYPTAVCRADDDSVPESCEIPSGTPQWSIHGLWPNFENGSYPQNCRGTPRHFDENLIKSIEDRLVVVWPNLYPKKTIQSFWKHEYDKHGTCAQSEKLFESELAYFTEVMKVFDSIDVAGGLKSVGPSEKPITSSDLKNALSGVTSGKTFQFHCLRDKKTKQFLLGDIRLCLNKDLTIRDCPTDGKHPNRVSRFERSIGRNRRGPPLPSFQPCPAEFIYLPEMSSISKSSDSTSPSIFGRIWSAIKNIGN | not soluble |
| MKLMQIRKPLLKSSLLDQNLTEEEVNMKFVQDLLNWVDEMQVQLDRTEWGSDLPSVESHLENHKNVHRAIEEFESSLKEAKISEIQMTAPLKLSYTDKLHRLESQYAKLLNTSRNQERHLDTLHNFVTRATNELIWLNEKEESEVAYDWSERNSSVARKKSYHAELMRELEQKEESIKAVQEIAEQLLLENHPARLTIEAYRAAMQTQWSWILQLCQCVEQHIQE | soluble |
| MKLNKQNLTQLAPEVKLPAYTLADTRQGIAHIGVGGFHRAHQAYYTDALMNTGEGLDWSICGVGLRSEDRKARDDLAGQDYLFTLYELGDTDDTEVRVIGSISDMLLAEDSAQALIDKLASPEIRIVSLTITEGGYCIDDSNGEFMAHLPQIQHDLAHPSSPKTVFGFICAALTQRRAAGIPAFTVMSCDNLPHNGAVTRKALLAFAALHNAELHDWIKAHVSFPNAMVDRITPMTSTAHRLQLHDEHGIDDAWPVVCEPFVQWVLEDKFVNGRPAWEKVGVQFTDDVTPYEEMKIGLLNGSHLALTYLGFLKGYRFVHETMNDPLFVAYMRAYMDLDVTPNLAPVPGIDLTDYKQTLVDRFSNQAIADQLERVCSDGSSKFPKFTVPTINRLIADGRETERAALVVAAWALYLKGVDENGVSYTIPDPRAEFCQGLVSDDALISQRLLAVEEIFGTAIPNSPEFVAAFERCYGSLRDNGVTTTLKHLLKKPV | soluble |
| MKLQQLRYIVEVVNHNLNVSSTAEGLYTSQPGISKQVRMLEDELGIQIFARSGKHLTQVTPAGQEIIRIAREVLSKVDAIKSVAGEHTWPDKGSLYVATTHTQARYALPGVIKGFIERYPRVSLHMHQGSPTQIAEAVSKGNADFAIATEALHLYDDLVMLPCYHWNRSIVVTPEHPLATKGSVSIEELAQYPLVTYTFGFTGRSELDTAFNRAGLTPRIVFTATDADVIKTYVRLGLGVGVIASMAVDPVSDPDLVKLDANGIFSHSTTKIGFRRSTFLRSYMYDFIQRFAPHLTRDVVDTAVALRSNEDIEAMFKDIKLPEK | soluble |
| MKLREQINSISGFRYVIDELCIHSSVGRRCLMEQEFLTEASDIEVLLSRVEIAISYQADQRKQKGLDEIAHKLMQLRDIQGTIYSLSRHVVCTDIDFFEIKFLAILSEDIRDLIRFYQLDDLSSPLPDLSHIVSVLDPEEKKIPHFYIYDAYS | not soluble |
| MKLRLSALALGTTLLVGCASSGTDQQGRSDPLEGFNRTMYNFNFNVLDPYIVRPVAVAWRDYVPQPARNGLSNFTGNLEEPAVMVNYFLQGDPYQGMVHFTRFFLNTILGMGGFIDVAGMANPKLQRTEPHRFGSTLGHYGVGYGPYVQLPFYGSFTLRDDGGDMADGLYPVLSWLTWPMSVGKWTLEGIETRAQLLDSDGLLRQSSDPYIMVREAYFQRHDFIANGGELKPQENPNAQAIQDDLKDIDSE | not soluble |
| MKLSAQSHASIASSLREAVDKYIADGERTVVTDIHLQPKQDSGELVIFNDDDEELSRTIIEEWVDYSEDDFYTIVERILRGEINALKDTGVLDKLAIMKPYSFVLVDEDRETVTELLLIDDEDTLLLNDELLKGLDEELDAFLKDLLEKLEHHHHHH | soluble |
| MKLSIVIVNYRVPYFLEQCLLSVRKSAQGIDTEVWVVDNNSGDGSVEYLQSRFPEVHFVANEENVGFSRANNQAIRLSKGQYVLLLNPDTLIGESTLRTVVDFMDSKPNAGGLGVKMLNGHGRFLPESKRGFPSPWVSFCKLSGLNRLFPHSSRFNRYHLSYLSRDEVHKVEVLSGAFMLMRREALDKVGLLDERFFMYGEDIDLSYRLILGGYDNYYYPTPILHYKGESSSVSDVKYLRSFYGAMGLFFDKYYRNRMNPLLHGLINVVIKARTALALMLRSLRKVPAAEKPAKIFYWHPSEGEAAISAYHDRSHILINTDEVTCDRLLLTMEKLADRKHTFHLTNDTTKRVISP | not soluble |
| MKLSPREADGYFARPDAGKTGILIHGADAMRIALKRQQIIAALLGPGGEEEMRLTRMPGAELRKDAAQLLDAVKAVGFFPGPRVVFVEDCPETSAPAVLTALEDWQPGDAQIVVTAGQLKPSSKIRKAFETHPNAYAAGIYDDPPSRAEIERMLSAAGIRDVPPEPMTVLSDLARDLGPGDFAQTMEKLALYKLGDTAPLVLEDIAACAPRSTEAALDDVLNVVAEGKEGEIGPLIRRLQAQGTTPVSLCIGATRHFRTLYTCASAPGGPSQGIGALRPPVFGPRRDRILNQAQRWGARRLEAALTVLTDTDLALRSAGQSAPQMALVERAMIRLAWLSRSRLEHHHHHH | not soluble |
